From patent US20080070791A1 (ZEPHYR PROTEOMIX, published 2008)

Molecular target: T1, α4β1 integrin expressed on Jurkat cells (human, UniProt P13612 34-1032; P05556 21-798)
T1 construct: whole, on cells; Fluorescence-labeled Jurkat cells applied to the microarray; also called receptor recognizing the CS1 peptide
Assay: cell adhesion of labeled Jurkat cells on microarray
Procedure: Jurkat T-cells, a human leukemia line, were grown under the appropriate growing conditions. Shortly before the adherence assay, cells were washed with 5 mM EDTA in Tris-buffered saline (TBS, 10 mM Tris-HCl, pH 7.4, 150 mM NaCl) and then incubated with Cyto 82 (2 μM final concentration) for 30 min under continuous agitation. Labeled cells were washed twice with the same buffer and applied directly on the fabricated microarray slides.
The model of interaction chosen for this purpose was α4β1-CS1-interaction model. α4β1 is an integrin expressed by several types of adherent cells and can mediate cell matrix contact trough the known ligand fibronectin. […] The slides were washed extensively and the interaction was scanned by the microarray scanner (FIG. 12).

T1 sequence (P13612 34-1032, chain 1 of 2): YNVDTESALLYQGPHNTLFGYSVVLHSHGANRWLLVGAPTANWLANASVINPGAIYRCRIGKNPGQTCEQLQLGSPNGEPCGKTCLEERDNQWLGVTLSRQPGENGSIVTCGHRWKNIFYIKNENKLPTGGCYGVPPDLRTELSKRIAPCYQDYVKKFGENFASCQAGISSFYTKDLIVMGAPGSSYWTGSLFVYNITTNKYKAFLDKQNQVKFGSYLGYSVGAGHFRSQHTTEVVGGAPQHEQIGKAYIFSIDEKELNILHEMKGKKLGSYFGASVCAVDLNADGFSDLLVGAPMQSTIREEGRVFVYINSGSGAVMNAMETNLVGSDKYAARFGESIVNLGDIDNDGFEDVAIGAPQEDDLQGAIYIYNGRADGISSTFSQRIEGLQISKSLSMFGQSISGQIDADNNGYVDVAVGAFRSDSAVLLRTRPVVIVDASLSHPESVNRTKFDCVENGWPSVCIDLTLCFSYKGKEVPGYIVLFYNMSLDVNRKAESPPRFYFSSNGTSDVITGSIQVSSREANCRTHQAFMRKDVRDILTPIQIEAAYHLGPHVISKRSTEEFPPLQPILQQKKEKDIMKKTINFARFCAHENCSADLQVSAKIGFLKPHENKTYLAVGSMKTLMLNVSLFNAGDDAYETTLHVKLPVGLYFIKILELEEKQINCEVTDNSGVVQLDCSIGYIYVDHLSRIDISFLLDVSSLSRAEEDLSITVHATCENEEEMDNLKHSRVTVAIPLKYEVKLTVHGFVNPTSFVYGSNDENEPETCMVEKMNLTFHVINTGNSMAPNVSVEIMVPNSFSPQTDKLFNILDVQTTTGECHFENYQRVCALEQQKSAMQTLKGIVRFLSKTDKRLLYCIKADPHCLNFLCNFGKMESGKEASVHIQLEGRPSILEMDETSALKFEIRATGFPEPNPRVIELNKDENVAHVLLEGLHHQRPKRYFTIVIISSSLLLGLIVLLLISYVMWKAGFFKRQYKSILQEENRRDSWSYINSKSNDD
T1 sequence (P05556 21-798, chain 2 of 2): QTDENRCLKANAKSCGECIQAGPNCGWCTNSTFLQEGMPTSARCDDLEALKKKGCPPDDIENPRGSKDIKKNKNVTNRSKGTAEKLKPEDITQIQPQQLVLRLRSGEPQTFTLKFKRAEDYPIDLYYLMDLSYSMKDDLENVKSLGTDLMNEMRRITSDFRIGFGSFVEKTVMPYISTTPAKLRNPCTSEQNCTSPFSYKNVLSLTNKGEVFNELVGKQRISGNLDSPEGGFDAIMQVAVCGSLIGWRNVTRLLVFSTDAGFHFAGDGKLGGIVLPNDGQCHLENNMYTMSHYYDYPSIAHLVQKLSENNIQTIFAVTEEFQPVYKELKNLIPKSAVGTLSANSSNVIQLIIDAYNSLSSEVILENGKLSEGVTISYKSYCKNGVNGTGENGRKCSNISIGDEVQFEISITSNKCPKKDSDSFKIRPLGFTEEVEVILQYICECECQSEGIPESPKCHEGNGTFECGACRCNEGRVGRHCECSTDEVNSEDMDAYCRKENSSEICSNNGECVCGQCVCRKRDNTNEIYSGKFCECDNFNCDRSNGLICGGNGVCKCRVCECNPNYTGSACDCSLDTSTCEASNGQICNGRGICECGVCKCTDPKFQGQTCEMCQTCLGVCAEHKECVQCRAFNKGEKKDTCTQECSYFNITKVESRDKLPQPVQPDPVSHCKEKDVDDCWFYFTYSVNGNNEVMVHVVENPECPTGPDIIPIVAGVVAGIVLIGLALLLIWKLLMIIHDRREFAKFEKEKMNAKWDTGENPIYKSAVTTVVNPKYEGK

B1: recombinant protein comprising the cellulose binding region of SEQ ID NO:4 (other)
chain: NATPTKGATPTNTATPTKSATATPTRPSVPTNTPTNTPANTPVSGNLKVEFYNSNPSDTTNSINPQFKVTNTGSSAIDLSKLTLRYYYTVDGQKDQTFWCDHAAIIGSNGSYNGITSNVKGTFVKMSSSTNNADTYLEISFTGGTLEPGAHVQIQGRFAKNDWSNYTQSNDYSFKSASQFVEWDQVTAYLNGVLVWGKEPGGSVVPSTQPVTTPPATTKPPATTKPPATTIPPSDDPNA
  binding result: no binding (tested: highest array concentration)
